In patent US20240166753A1 (DRAGONFLY THERAPEUTICS, published 2024):

Tests used:
[1] = target: T1, murine NKG2D overexpressed on EL4 cells (EL4-mNKG2D) (mouse, UniProt O54709 1-232); test: flow cytometry, 60 ug/mL with four-fold dilutions, EL4-mNKG2D cells, goat anti-mouse PE
T1 construct: whole, on cells; also called EL4-mNKG2D cells
T1 sequence (looked up): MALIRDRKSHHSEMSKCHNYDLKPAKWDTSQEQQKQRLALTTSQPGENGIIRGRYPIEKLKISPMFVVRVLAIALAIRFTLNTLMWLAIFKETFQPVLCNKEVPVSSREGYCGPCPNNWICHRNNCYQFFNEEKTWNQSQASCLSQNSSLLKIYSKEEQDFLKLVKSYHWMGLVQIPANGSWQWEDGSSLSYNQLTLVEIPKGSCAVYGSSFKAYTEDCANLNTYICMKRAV

[2] = target: T2, Tyrp-1 on B16F10 melanoma cells (UniProt P07147 25-537, limits assumed); test: flow cytometry, 60 ug/mL with four-fold dilutions, B16F10 tumor cells, goat anti-mouse PE
T2 construct: whole, on cells; B16F10 is a mouse melanoma line; also called Tyrp-1-positive B16F10 melanoma cells

[3] = target: T3, CD33 expressed on MV4-11 human AML cells (human, UniProt P20138 18-364); test: flow cytometry on MV4-11 cells
T3 construct: whole, on cells; also called cell-expressed CD33
T3 sequence (P20138 18-364): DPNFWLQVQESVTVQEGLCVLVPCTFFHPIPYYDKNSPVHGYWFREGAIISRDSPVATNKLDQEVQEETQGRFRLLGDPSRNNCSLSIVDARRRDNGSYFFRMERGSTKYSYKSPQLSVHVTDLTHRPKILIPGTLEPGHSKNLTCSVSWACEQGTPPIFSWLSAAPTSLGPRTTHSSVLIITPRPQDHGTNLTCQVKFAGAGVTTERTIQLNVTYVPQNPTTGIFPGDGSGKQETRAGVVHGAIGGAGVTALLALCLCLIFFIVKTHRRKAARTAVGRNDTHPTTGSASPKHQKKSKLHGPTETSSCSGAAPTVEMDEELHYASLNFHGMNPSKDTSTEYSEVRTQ

[4] = target: T3, CD33 expressed on MV4-11 human AML cells; test: flow cytometry on MV4-11 cells, MFI fold over background

B1: mcFAE-C26.99 TriNKET (bispecific antibody, mouse IgG2c)
heavy 1: QVQLQQWGAGLLKPSETLSLTCAVYGGSFSGYYWSWIRQPPGKGLEWIGEIDHSGSTNYNPSLKSRVTISVDTSKNQFSLKLSSVTAADTAVYYCARARGPWSFDPWGQGTLVTVSSAKTTAPSVYPLAPVCGGTTGSSVTLGCLVKGYFPEPVTLTWNSGSLSSGVHTFPALLQSGLYTLSSSVTVTSNTWPSQTITCNVAHPASSTKVDKKIEPRVPITQNPCPPLKECPPCAAPDLLGGPSVFIFPPKIKDVLMISLSPMVTCVVVDVSEDDPDVQISWFVNNVEVHTAQTQTHREDYNSTLRVVSALPIQHQDWMSGKEFKCKVNNRALPSPIEKTISKPRGPVRAPQVYVLPPPAEEMTKKEFSLTCMIKGFLPAEIAVDWTSNGRTEQNYKNTATVLDSDGSYFMYSRLRVQKSTWERGSLFACSVVHEGLHNHLTTKTISRSLGK
light 1: DIQMTQSPSTLSASVGDRVTITCRASQSISSWLAWYQQKPGKAPKLLIYKASSLESGVPSRFSGSGSGTEFTLTISSLQPDDFATYYCQQYGSFPITFGGGTKVEIKRADAAPTVSIFPPSSEQLTSGGASVVCFLNNFYPKDINVKWKIDGSERQNGVLNSWTDQDSKDSTYSMSSTLTLTKDEYERHNSYTCEATHKTSTSPIVKSFNRNEC
heavy 2: EVQLQQSGAELVRPGALVKLSCKTSGFNIKDYFLHWVRQRPDQGLEWIGWINPDNGNTVYDPKFQGTASLTADTSSNTVYLQLSGLTSEDTAVYFCTRRDYTYEKAALDYWGQGASVIVSSAKTTAPSVYPLAPVCGGTTGSSVTLGCLVKGYFPEPVTLTWNSGSLSSGVHTFPALLQSGLYTLSSSVTVTSNTWPSQTITCNVAHPASSTKVDKKIEPRVPITQNPCPPLKECPPCAAPDLLGGPSVFIFPPKIKDVLMISLSPMVTCVVVDVSEDDPDVQISWFVNNVEVHTAQTQTHREDYNSTLRVVSALPIQHQDWMSGKEFKCKVNNRALPSPIEKTISKPRGPVRAPQVYVLPPPAEEMTKKEFSLTCMITGFLPAEIAVDWTSNGRTEQNYKNTATVLDSDGSYLMYSKLTVQKSTWERGSLFACSVVHEGLHNHLTTKTISRSLGK
light 2: DIQMSQSPASLSASVGETVTITCRASGNIYNYLAWYQQKQGKSPHLLVYDAKTLADGVPSRFSGSGSGTQYSLKISSLQTEDSGNYYCQHFWSLPFTFGSGTKLEIKRADAAPTVSIFPPSSEQLTSGGASVVCFLNNFYPKDINVKWKIDGSERQNGVLNSWTDQDSKDSTYSMSSTLTLTKDEYERHNSYTCEATHKTSTSPIVKSFNRNEC
notes: Heterodimer of mC26 and TA99 with mouse IgG2c as the Fc; also called murine cFAE-C26.99 TriNKET; TA99 TriNKET
binding result [1]: binds | binding result [2]: binds

B2: CD33-TriNKET-C26 (ADI-28226 and a CD33-binding domain) (bispecific antibody, V domains shown)
VH 1: QVQLQQWGAGLLKPSETLSLTCAVYGGSFSGYYWSWIRQPPGKGLEWIGEIDHSGSTNYNPSLKSRVTISVDTSKNQFSLKLSSVTAADTAVYYCARARGPWSFDPWGQGTLVTVSS
VL 1: DIQMTQSPSTLSASVGDRVTITCRASQSISSWLAWYQQKPGKAPKLLIYKASSLESGVPSRFSGSGSGTEFTLTISSLQPDDFATYYCQQYGSFPITFGGGTKVEIK
VH 2: QVQLVQSGAEVKKPGASVKVSCKASGYTFTDYVVHWVRQAPGQGLEWMGYINPYNDGTKYNEKFKGRVTMTRDTSISTAYMELSRLRSDDTAVYYCARDYRYEVYGMDYWGQGTLVTVSS
VL 2: DIVLTQSPASLAVSPGQRATITCTASSSVNYIHWYQQKPGQPPKLLIYDTSKVASGVPARFSGSGSGTDFTLTINPVEANDTANYYCQQWRSYPLTFGQGTKLEIK
notes: also called C26-TriNKET-CD33
binding result [3]: binds

B3: parental anti-CD33 monoclonal antibody (antibody, V domains shown)
VH: QVQLVQSGAEVKKPGASVKVSCKASGYTFTDYVVHWVRQAPGQGLEWMGYINPYNDGTKYNEKFKGRVTMTRDTSISTAYMELSRLRSDDTAVYYCARDYRYEVYGMDYWGQGTLVTVSS
VL: DIVLTQSPASLAVSPGQRATITCTASSSVNYIHWYQQKPGQPPKLLIYDTSKVASGVPARFSGSGSGTDFTLTINPVEANDTANYYCQQWRSYPLTFGQGTKLEIK
notes: also called parental monoclonal anti-CD33 antibody; parental anti-CD33 antibody
binding result [4]: binds
